Assay [1] has as its target T1, Human ACVR2A (human, UniProt P27037 20-135, limits assumed).
T1 construct: also called activin receptor, type II A
As to the kind of experiment: ELISA. The gist of the method: (§1)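 Monoclonal antibodies were first applied to human or mouse ACVR2A, alongside biotinylated goat anti-human kappa light chain (positive control) and human Fc (negative control); binding was then determined by ELISA.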
Background: An ELISA detects its analyte on a solid surface through an enzyme-linked reagent.

The target in assay [2] is Mouse ACVR2A (mouse, UniProt P27038 20-135, limits assumed). As to the kind of experiment: ELISA. The gist of the method:
as §1

For the next assay, the target named is T2, Goat anti-Human Kappa.
T2 construct: Positive control; also called biotinylated goat anti-human kappa light chain
As to the kind of experiment: ELISA; positive control. The gist of the method: as §1

In assay [3] the target is human ACVR2A (human, UniProt P27037 20-135, limits assumed). The experiment in a line: ELISA. The gist of the method:
as §1

Assay [4] addresses mouse ACVR2A (mouse, UniProt P27038 20-135, limits assumed). As to the kind of experiment: ELISA. In outline:
as §1

In assay [5] the target is T3, biotinylated goat anti-human kappa light chain.
T3 construct: Positive control of the ELISA
The experiment in a line: ELISA; positive control. The gist of the method: as §1
Note: test concentration or dose not given here.

Chain of Mouse ACVR2A (P27038 20-135 limits assumed): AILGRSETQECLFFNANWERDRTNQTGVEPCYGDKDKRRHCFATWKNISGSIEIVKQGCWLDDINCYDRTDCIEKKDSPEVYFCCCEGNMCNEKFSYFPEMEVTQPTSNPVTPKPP
Chain of mouse ACVR2A (P27038 20-135 limits assumed): as above
Chain of human ACVR2A (P27037 20-135 limits assumed): as the sequence (P27038 20-135 limits assumed) above, with R20K, I73V counted along it
T1 sequence (P27037 20-135 limits assumed): as the sequence (P27038 20-135 limits assumed) above, with R20K, I73V counted along it

B1: 366_A07 (antibody, V domains shown)
VH: EVQLLESGGGLVQPGGSLRLSCAASGFTFSSYGMHWVRQAPGKGLEWVASINYNGGYTGYADSVKGRFTISRDNSKNTLYLQMNSLRAEDTAVYYCARSANWHDTALDYWGQGTLVTVSS
VL: DIQMTQSPSSLSASVGDRVTITCRASQSIVSYVNWYQQKPGKAPKLVIYAATSRHSGVPSRFSGSGSGTDFTLTISSLQPEDFATYYCQQSYESPLTFGGGTKVEIK
notes: VH/VL only
Consider B1, for which the optical density in the assay with Human ACVR2A [1] came out at 2.42 OD; with Mouse ACVR2A [2], 2.68 OD; with Goat anti-Human Kappa it was 3.37 OD.

B2: 366_G05 (antibody, V domains shown)
VH: EVQLLESGGGLVQPGGSLRLSCAASGFTFDSYGMNWVRQAPGKGLEWVSNINYNGGYTSYADSVKGRFTISRDNSKNTLYLQMNSLRAEDTAVYYCARSANWHDTALDYWGQGTLVTVSS
VL: DIQMTQSPSSLSASVGDRVTITCRASQSIISYVNWYQQKPGKAPKLVIYAATSRASGVPSRFSGSGSGTDFTLTISSLQPEDFATYYCQQSYENPLTFGGGTKVEIK
notes: VH/VL only
For B2, the optical density in the assay with Human ACVR2A [1] was found to be 2.21 OD; with Mouse ACVR2A [2] it was 2.5 OD; in the assay with Goat anti-Human Kappa it was 3.26 OD.

B3: 366_H09 (antibody, V domains shown)
VH: EVQLLESGGGLVQPGGSLRLSCAASGFTFDSYGMNWVRQAPGKGLEWVSNINYNSGYKGYADSVKGRFTISRDNSKNTLYLQMNSLRAEDTAVYYCARSANWHDTALDYWGQGTLVTVSS
VL: DIQMTQSPSSLSASVGDRVTITCRASQSIVSYVNWYQQKPGKAPKLVIYATTSRASGVPSRFSGSGSGTDFTLTISSLQPEDFATYYCQQSYSSPLTFGGGTKVEIK
notes: VH/VL only
For B3, the optical density with Human ACVR2A [1] amounted to 2.1 OD; in the assay with Mouse ACVR2A [2] it was 2.44 OD; in the assay with Goat anti-Human Kappa, 3.42 OD.

B4: 370_A09 (antibody, V domains shown)
VH: EVQLLESGGGLVQPGGSLRLSCAASGFTFSSYSMNWVRQAPGKGLEWVAGINYNGGYTGYADSVKGRFTISRDNSKNTLYLQMNSLRAEDTAVYYCARSATWHDTHLDYWGQGTLVTVSS
VL: DIQMTQSPSSLSASVGDRVTITCRASQSILTYLNWYQQKPGKAPKLVIYAATSRASGVPSRFSGSGSGTDFTLTISSLQPEDFATYYCQQSYDTPLTFGGGTKVEIK
notes: VH/VL only
With B4, the optical density with human ACVR2A [3] is 3.46 OD; with mouse ACVR2A [4], 3.27 OD; in assay [5] it was 3.58 OD.

B5: 366_E10 (antibody, V domains shown)
VH: EVQLLESGGGLVQPGGSLRLSCAASGFTFDSYGMNWVRQAPGKGLEWVSGINYNGGYKGYADSVKGRFTISRDNSKNTLYLQMNSLRAEDTAVYYCARSANWHDTHLDYWGQGTLVTVSS
VL: DIQMTQSPSSLSASVGDRVTITCRASQSILSYVNWYQQKPGKAPKLVIYAATSRHSGVPSRFSGSGSGTDFTLTISSLQPEDFATYYCQQSYSLPLTFGGGTKVEIK
notes: VH/VL only
Regarding B5, the optical density with Human ACVR2A [1] came to 2.35 OD; with Mouse ACVR2A [2], 2.39 OD; with Goat anti-Human Kappa, 3.45 OD.

B6: 366_H07 (antibody, V domains shown)
VH: EVQLLESGGGLVQPGGSLRLSCAASGFTFSSYGMHWVRQAPGKGLEWVSGINYNGGYTSYADSVKGRFTISRDNSKNTLYLQMNSLRAEDTAVYYCARSANWHDTALDYWGQGTLVTVSS
VL: DIQMTQSPSSLSASVGDRVTITCRASQSIISYVNWYQQKPGKAPKLVIYAVTSRASGVPSRFSGSGSGTDFTLTISSLQPEDFATYYCQQSYENPLTFGGGTKVEIK
notes: VH/VL only
With B6, the optical density with Human ACVR2A [1] turned out to be 2.53 OD; with Mouse ACVR2A [2], 2.67 OD; in the assay with Goat anti-Human Kappa, 3.6 OD.

B7: 367_B02 (antibody, V domains shown)
VH: EVQLLESGGGLVQPGGSLRLSCAASGFTFDSYGMNWVRQAPGKGLEWVSSINYNGGYTSYADSVKGRFTISRDNSKNTLYLQMNSLRAEDTAVYYCARSANWHDTALDYWGQGTLVTVSS
VL: not shown
notes: VH/VL only
For the molecule B7, the optical density is 2.29 OD in the assay with Human ACVR2A [1], 2.42 OD with Mouse ACVR2A [2] and 3.53 OD with Goat anti-Human Kappa.

B8: 365_C07 (antibody, V domains shown)
VH: EVQLLESGGGLVQPGGSLRLSCAASGFTFSDYGMNWVRQAPGKGLEWVASINYNGGYTSYADSVKGRFTISRDNSKNTLYLQMNSLRAEDTAVYYCARSATWHDTALDYWGQGTLVTVSS
VL: DIQMTQSPSSLSASVGDRVTITCRASQSIVSYVNWYQQKPGKAPKLLIYAATSRASGVPSRFSGSGSGTDFTLTISSLQPEDFATYYCQQSYDTPLTFGGGTKVEIK
notes: VH/VL only
For the molecule B8, the optical density with human ACVR2A [3] was determined as 1.94 OD; with mouse ACVR2A [4], 1.92 OD; in assay [5], 3.17 OD.

B9: 365_A10 (antibody, V domains shown)
VH: EVQLLESGGGLVQPGGSLRLSCAASGFTFSSYGMHWVRQAPGKGLEWVAGINYNSGYTSYADSVKGRFTISRDNSKNTLYLQMNSLRAEDTAVYYCARSATWHDTHLDYWGQGTLVTVSS
VL: DIQMTQSPSSLSASVGDRVTITCRASQSILTYLNWYQQKPGKAPKLVIYAVTSLASGVPSRFSGSGSGTDFTLTISSLQPEDFATYYCQQSYDSPLTFGGGTKVEIK
notes: VH/VL only
In the case of B9, the optical density in the assay with human ACVR2A [3] stood at 2.19 OD; with mouse ACVR2A [4], 2.49 OD; in assay [5] it was 3.45 OD.

B10: 365_A01 (antibody, V domains shown)
VH: EVQLLESGGGLVQPGGSLRLSCAASGFTFSDYGMNWVRQAPGKGLEWVAGINYNGGYTSYADSVKGRFTISRDNSKNTLYLQMNSLRAEDTAVYYCARSATWHDTHLDYWGQGTLVTVSS
VL: DIQMTQSPSSLSASVGDRVTITCRASQSILTYVNWYQQKPGKAPKLVIYATTSLASGVPSRFSGSGSGTDFTLTISSLQPEDFATYYCQQSYSTPLTFGGGTKVEIK
notes: VH/VL only
In the case of B10, the optical density is 2.77 OD with human ACVR2A [3], 2.9 OD with mouse ACVR2A [4] and 3.51 OD in assay [5].

B11: 365_C09 (antibody, V domains shown)
VH: EVQLLESGGGLVQPGGSLRLSCAASGFTFSDYGMNWVRQAPGKGLEWVSGINYNGGYKSYADSVKGRFTISRDNSKNTLYLQMNSLRAEDTAVYYCARSATWHDTHLDYWGQGTLVTVSS
VL: DIQMTQSPSSLSASVGDRVTITCRASQSIVSYVNWYQQKPGKAPKLLIYAATSRASGVPSRFSGSGSGTDFTLTISSLQPEDFATYYCQQSYDTPLTFGGGTKVEIK
notes: VH/VL only
Regarding B11, the optical density in the assay with human ACVR2A [3] was determined as 2.05 OD; with mouse ACVR2A [4], 2.18 OD; in assay [5], 3.27 OD.

B12: 365_A07 (antibody, V domains shown)
VH: EVQLLESGGGLVQPGGSLRLSCAASGFTFSSYGMNWVRQAPGKGLEWVAGINYNSGYKGYADSVKGRFTISRDNSKNTLYLQMNSLRAEDTAVYYCARSATWHDTHLDYWGQGTLVTVSS
VL: DIQMTQSPSSLSASVGDRVTITCRASQSIVSYLNWYQQKPGKAPKLLIYAATSRASGVPSRFSGSGSGTDFTLTISSLQPEDFATYYCQQSYNLPLTFGGGTKVEIK
notes: VH/VL only
Take B12: the optical density with human ACVR2A [3] turned out to be 2.24 OD; with mouse ACVR2A [4], 2.25 OD; in assay [5], 3.41 OD.

B13: 365_D05 (antibody, V domains shown)
VH: EVQLLESGGGLVQPGGSLRLSCAASGFTFDSYSMNWVRQAPGKGLEWVAGINYNGGYTSYADSVKGRFTISRDNSKNTLYLQMNSLRAEDTAVYYCARSATWHDTHLDYWGQGTLVTVSS
VL: DIQMTQSPSSLSASVGDRVTITCRASQSILTYVNWYQQKPGKAPKLLIYAATSRASGVPSRFSGSGSGTDFTLTISSLQPEDFATYYCQQSYNSPLTFGGGTKVEIK
notes: VH/VL only
On to B13, for which the optical density stood at 2.58 OD in the assay with human ACVR2A [3], 2.72 OD with mouse ACVR2A [4] and 3.51 OD in assay [5].

B14: 365_F04 (antibody, V domains shown)
VH: EVQLLESGGGLVQPGGSLRLSCAASGFTFSSYGMNWVRQAPGKGLEWVAGINYNGGYTGYADSVKGRFTISRDNSKNTLYLQMNSLRAEDTAVYYCARSATWHDTHLDYWGQGTLVTVSS
VL: DIQMTQSPSSLSASVGDRVTITCRASQSIVTYVNWYQQKPGKAPKLLIYAATSRASGVPSRFSGSGSGTDFTLTISSLQPEDFATYYCQQSYDTPLTFGGGTKVEIK
notes: VH/VL only
Turning to B14, the optical density with human ACVR2A [3] amounted to 2.26 OD; with mouse ACVR2A [4] it was 2.51 OD; in assay [5], 3.47 OD.

B15: 365_E02 (antibody, V domains shown)
VH: EVQLLESGGGLVQPGGSLRLSCAASGFTFSSYSMNWVRQAPGKGLEWVANINYNGGYTSYADSVKGRFTISRDNSKNTLYLQMNSLRAEDTAVYYCAKSATWHDTHLDYWGQGTLVTVSS
VL: DIQMTQSPSSLSASVGDRVTITCRASQSIISYLNWYQQKPGKAPKLLIYAATSRASGVPSRFSGSGSGTDFTLTISSLQPEDFATYYCQQSYENPLTFGGGTKVEIK
notes: VH/VL only
Turning to B15, the optical density in the assay with human ACVR2A [3] was 2.45 OD; with mouse ACVR2A [4], 2.61 OD; in assay [5], 3.5 OD.

B16: 365_B03 (antibody, V domains shown)
VH: EVQLLESGGGLVQPGGSLRLSCAASGFTFSSYSMNWVRQAPGKGLEWVAGINYNGGYTGYADSVKGRFTISRDNSKNTLYLQMNSLRAEDTAVYYCARSATWHDTHLDYWGQGTLVTVSS
VL: DIQMTQSPSSLSASVGDRVTITCRASQSIVSYLNWYQQKPGKAPKLLIYAATSRASGVPSRFSGSGSGTDFTLTISSLQPEDFATYYCQQSYENPLTFGGGTKVEIK
notes: VH/VL only
Take B16: the results for the optical density (in the assay with human ACVR2A [3]; with mouse ACVR2A [4]; in assay [5]) were 2.65 OD, 2.53 OD and 3.38 OD, respectively.

B17: 365_B09 (antibody, V domains shown)
VH: EVQLLESGGGLVQPGGSLRLSCAASGFTFDSYSMNWVRQAPGKGLEWVAGINYNSGYKSYADSVKGRFTISRDNSKNTLYLQMNSLRAEDTAVYYCARSATWHDTHLDYWGQGTLVTVSS
VL: DIQMTQSPSSLSASVGDRVTITCRASQSILRYLNWYQQKPGKAPKLLIYAATSLHSGVPSRFSGSGSGTDFTLTISSLQPEDFATYYCQQSYDNPLTFGGGTKVEIK
notes: VH/VL only
On to B17, for which the optical density with human ACVR2A [3] came to 3.26 OD; with mouse ACVR2A [4], 3.32 OD; in assay [5] it was 3.28 OD.

Values taken from patent publication US20210380703A1 (RIGEL PHARMACEUTICALS, published 2021).
